Source: PMC6662825, “The MTR4 helicase recruits nuclear adaptors of the human RNA exosome using distinct arch-interacting motifs” (Nature Communications, 2019)
Positions count from the first letter of the chain named.

Assays:
Assay in all cases: pull-down; GST-tagged MTR4 constructs as bait, Trx-NVL constructs as prey, glutathione sepharose; 10 μM GST-MTR4∆N with 20 μM Trx-NVL constructs; 50 mM Hepes pH 7.5, 150 mM NaCl, 5% glycerol, 0.05% NP40, 1 mM DTT, 30 min at 4 °C; SDS-PAGE, Coomassie
Conditions in all cases: both partners purified
[1] = molecular target: T1, GST-MTR4∆N F677E (human, UniProt P42285 75-1042, F677E)
T1 construct: source: E. coli BL21 star (DE3), purified (Ni-NTA, heparin, SEC); not shown: 6xHis-GST, N-terminal, kept
T1 sequence (looked up): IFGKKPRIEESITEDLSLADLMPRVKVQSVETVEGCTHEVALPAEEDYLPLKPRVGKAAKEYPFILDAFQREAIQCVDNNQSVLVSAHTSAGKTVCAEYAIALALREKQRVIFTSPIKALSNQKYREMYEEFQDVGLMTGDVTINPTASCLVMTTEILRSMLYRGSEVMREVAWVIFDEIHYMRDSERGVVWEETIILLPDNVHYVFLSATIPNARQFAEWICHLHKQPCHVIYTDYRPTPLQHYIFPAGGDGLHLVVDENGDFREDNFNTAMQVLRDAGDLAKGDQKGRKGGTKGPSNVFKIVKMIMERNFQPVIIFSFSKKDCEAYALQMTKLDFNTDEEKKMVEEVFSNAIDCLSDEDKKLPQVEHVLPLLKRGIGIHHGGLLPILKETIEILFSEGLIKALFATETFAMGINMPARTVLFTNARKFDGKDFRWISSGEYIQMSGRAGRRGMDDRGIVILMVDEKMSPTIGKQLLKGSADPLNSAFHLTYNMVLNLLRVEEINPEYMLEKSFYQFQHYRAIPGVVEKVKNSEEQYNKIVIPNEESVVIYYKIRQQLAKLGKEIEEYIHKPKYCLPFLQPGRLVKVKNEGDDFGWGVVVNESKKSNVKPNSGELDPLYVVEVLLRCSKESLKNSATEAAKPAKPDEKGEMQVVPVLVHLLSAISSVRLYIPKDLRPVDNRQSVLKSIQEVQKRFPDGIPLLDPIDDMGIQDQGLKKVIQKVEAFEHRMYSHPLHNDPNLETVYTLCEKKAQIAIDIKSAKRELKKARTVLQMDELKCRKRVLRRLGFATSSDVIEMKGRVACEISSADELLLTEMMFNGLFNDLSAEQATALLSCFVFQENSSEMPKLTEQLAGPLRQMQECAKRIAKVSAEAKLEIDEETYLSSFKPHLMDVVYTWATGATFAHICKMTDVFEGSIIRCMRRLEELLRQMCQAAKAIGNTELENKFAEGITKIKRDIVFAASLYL

[2] = molecular target: T2, GST-MTR4∆N R743E (human, UniProt P42285 75-1042, R743E)
T2 construct: also called R743E mutant; source: E. coli BL21 star (DE3), purified (Ni-NTA, heparin, SEC); not shown: 6xHis-GST, N-terminal, kept
T2 sequence (looked up): T1 sequence (looked up) with E603F, R669E

[3] = molecular target: T3, GST-MTR4-KOW (human, UniProt P42285 645-787)
T3 construct: human MTR4 KOW domain, residues 645–787; also called GST-tagged MTR4 KOW; source: E. coli BL21 star (DE3), purified (Ni-NTA, heparin, SEC); not shown: 6xHis-GST, N-terminal, kept
T3 sequence (looked up): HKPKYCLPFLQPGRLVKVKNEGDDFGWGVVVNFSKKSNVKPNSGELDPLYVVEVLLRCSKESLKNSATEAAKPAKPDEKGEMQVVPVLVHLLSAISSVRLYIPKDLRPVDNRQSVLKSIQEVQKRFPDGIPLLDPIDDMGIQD

Measured: binding result

B1: Trx-NVL^167–216 (domain or fragment, human, UniProt O15381 167-216, looked up)
chain: KDSEGGWFIDKTPSVKKDSFFLDLSCEKSNPKKPITEIQDSKDSSLLESD
notes: source: E. coli BL21 star (DE3), purified (Ni-NTA, SEC); not shown: 6xHis-Trx, N-terminal, kept
binds: [1] | [2] | [3]
